Fold binding against the H3 peptide data for one substance are collected here from publication PMC8750153.

The assay addresses PpPex11 H2 WT peptide (Pichia pastoris). The experiment in a line: pull-down; biotinylated peptides on streptavidin affinity gel as bait; soluble lysate fraction of His6-tagged GFP-Pex11s as prey, 1 h at room temperature; 50 mM Tris pH 8.0, 50 mM NaCl, 5 mM EDTA; anti-GFP immunoblot. Background: A western blot detects proteins with antibodies after separation by electrophoresis.

Regarding His6-GFP-Pex11 (natural protein), the fold binding against the H3 peptide came out at 2.5 fold.
